Measured values from article PMC6532946, “Structure and assembly of pilotin-dependent and -independent secretins of the type II secretion system” (PLoS Pathogens, 2019).

What was measured:
[1] = molecular target: EpsD secretin from V. vulnificus (cell-free synthesized, His-tagged) (V. vulnificus); test: cryo-EM structure; purified multimers in TN buffer with Zw3-14, Quantifoil holey carbon grids with an extra 2 nm carbon layer; 2D class averages of top views; C15 symmetry imposed in the reconstruction
[2] = molecular target: the molecule itself; test: as above

Molecule	stoichiometry N [1]	stoichiometry N [2]
EpsD secretin from V. vulnificus (cell-free synthesized, His-tagged) (natural protein)	15	
ExeD secretin from A. hydrophila (cell-free synthesized, His-tagged) (natural protein, ExeD, T2SS secretin of Aeromonas hydrophila; a TEV cleavage site linker lies between the His-6 tag and the protein. numbers count on: the mature protein; No TEV cleavage is described; also called pilotin-independent ExeD; GspD; source: cell-free expression system with liposomes, extracted as multimers with Zw3-14, purified (Ni-NTA, Superose 6); copies: 15) TEYSASFKNADIEEFINTVGKNLSKTIIIEPSVRGKINVRSYDLLNEEQYYQFFLSVLDVYGFAVVPMDNGVLKVVRSKDAKTSAIPVVDETNPGIGDEMVTRVVPVRNVSVRELAPLLRQLNDNAGGGNVVHYDPSNVLLITGRAAVVNRLVEVVRRVDKAGDQEVDIIKLKYASAGEMVRLVTNLNKDGNSQGGNTSLLLAPKVVADERTNSVVVSGEPKARARIIQMVRQLDRDLQSQGNTRVFYLKYGKAKDMVEVLKGVSSSIEADKKGGGTATTAGGGASIGGGKLAISADETTNALVITAQPDVMAELEQVVAKLDIRRAQVLVEAIIVEIADGDGLNLGVQWANTNGGGTQFTNAGPGIGSVAIAAKDYKDNGTTTGLAKLAENFNGMAAGFYQGNWAMLVTALSTNTKSDILSTPSIVTMDNKEASFNVGQEVPVQTGTQNSTSGDTTFSTIERKTVGTKLVVTPQINEGDSVLLTIEQEVSSVGKQATGTDGLGPTFDTRTVKNAVLVKSGETVVLGGLMDEQTKEEVSKVPLLGDIPVLGYLFRSTSNNTSKRNLMVFIRPTILRDANVYSGISSNKYTLFRAQQLDAVAQEGYATSPDRQVLPEYGQDVTMSPEAQKQIELMKTHQQATADGVQPFVQGNK		15
